The values that follow come from article PMC7356834.

The test system of data set [1] is T1, APASM_1021 (AdpA-like protein) (Actinosynnema pretiosum ATCC 31280), ORF:1b9350d8.
T1 sequence: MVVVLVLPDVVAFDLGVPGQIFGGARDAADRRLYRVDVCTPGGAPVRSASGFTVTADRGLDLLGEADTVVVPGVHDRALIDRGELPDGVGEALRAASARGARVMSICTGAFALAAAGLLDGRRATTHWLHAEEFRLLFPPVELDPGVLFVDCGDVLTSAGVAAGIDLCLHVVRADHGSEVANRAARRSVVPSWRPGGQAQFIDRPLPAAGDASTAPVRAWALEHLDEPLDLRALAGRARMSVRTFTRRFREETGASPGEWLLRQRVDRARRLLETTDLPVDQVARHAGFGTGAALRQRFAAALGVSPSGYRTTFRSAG
The experiment in a line: competition. Particulars: 10 mM Tris-HCl pH 7.5, 1 mM EDTA, 100 mM KCl, 5% glycerol, 0.1 DTT (unit not given), 0.01 mg/mL BSA; 30 min at 30 C; 10% native PAGE at 4 C.

Data set [2] has the same test system. The experiment in a line: EMSA. Particulars: 10 mM Tris-HCl pH 7.5, 1 mM EDTA, 100 mM KCl, 5% glycerol, 0.1 DTT (unit not given), 0.01 mg/mL BSA; 30 min at 30 C; 10% native PAGE at 4 C. A general note: Mobility shift assays separate free from complexed probe on a gel.

Turning to “TGGAGCCGCTGACGGGGAGCCATCGACGGGAAGCCGCTGACCGGCCTCTCCGCGCCGCCACGCGGGCGCCGCACCTGAACCAGGTGCGGCGCCCGCGTGGTCGCGCCCTTTGACCCCGCCCCCGTTCCCCT (double strand) [P4178 unlabeled competitor]”, the binding entry in data set [1] is reported as “binds”.

Turning to “TGGAGCCGCTGACGGGGAGCCATCGACGGGAAGCCGCTGACCGGCCTCTCCGCGCCGCCACGCGGGCGCCGCACCTGAACCAGGTGCGGCGCCCGCGTGGTCGCGCCCTTTGACCCCGCCCCCGTTCCCCT (double strand) [P4178]”, the binding entry in data set [2] is “binds”.
